# From patent publication US20170022553, “NUCLEIC ACID SEQUENCING METHODS AND SYSTEMS” (OMNIOME, INC., published 2017)
# What was measured:
# [1] = molecular target: T1, Bsu DNA polymerase I large fragment (Bacillus subtilis, UniProt O34996 O34996:297-880); assay: BLI; correct dNTP, Ni(II), 200 mM KCl, 200 mM K glutamate, 30 C; details: tags: New England Biolabs M0330L; label: 5' biotin on template; primed template with 5' template overhang
# Procedure: Primer-template duplex was diluted (100 nM) into Annealing Buffer. Wash buffer was 20 mM Tris, pH 8.0, 200 mM KCl, 200 mM potassium glutamate, 0.01% (v/v), Tween-20, 100 μg/mL bovine serum albumin, 1.0 mM dithiothreitol. Binding Buffer was Wash Buffer containing 2.0 mM Ni(II)SO₄. Reaction Buffer was 20 mM Tris, pH 8.0, 50 mM KCl, MgCl₂ (10 mM), 0.01% (v/v) Tween-20, 100 μg/mL bovine serum albumin, 1.0 mM dithiothreitol. EDTA Wash Buffer was Binding Buffer containing 1.0 mM EDTA. Buffer containing Primer-Template (PT), Binding buffer containing one dNTP and Reaction Buffer were loaded (200 μL/well) into a Greiner 96-well black microplate (Sigma-Aldrich, St. Louis, Mo.; catalog number M9685), and PCR-grade mineral oil (Sigma-Aldrich, St. Louis, Mo.; catalog no. M8662) was applied (75 μL/well). High-precision streptavidin biosensors (Pall ForteBio Corp., Menlo Park, Calif.; catalog number 18-5117) were re-hydrated in Annealing Buffer for approximately 10 minutes before use. The Octet QK biosensor system (Pall ForteBio Corp., Menlo Park, Calif.) was set for 30° C. operation and was programmed to coat the biosensors with Primer-Template and wash away unbound Primer-Template with Wash Buffer. […]
# [2] = molecular target: T1, Bsu DNA polymerase I large fragment; assay: BLI; dGTP, 1 mM Ni(II), 30 C; highest amplitude; details: tags: New England Biolabs M0330L; label: 5' biotin on template; primed template with 5' template overhang
# Procedure: (§1) Primer-template duplex was diluted (100 nM) into Annealing Buffer. Wash buffer was 30 mM Tris, pH 8.0, 160 mM KCl, 160 mM potassium glutamate, 0.01% (v/v), Tween-20, 100 μg/mL bovine serum albumin, 1.0 mM dithiothreitol. Binding Buffer was Wash Buffer containing Bsu Pol I (68 Unit/mL) 100 μM dGTP+1.0 mM Ni(II)SO₄. Reaction Buffer was Wash Buffer containing Bsu (1 U/mL), MgCl₂ (80 μM), dGTP (28.1 μM), α-S-dGTP (162 μM). EDTA Wash Buffer was Wash Buffer without Ni(II)SO₄ but containing 1.0 mM EDTA. Buffer containing Primer-Template (PT), Binding Buffer and Reaction Buffer containing were loaded (200 μL/well) into a Greiner 96-well black microplate (Sigma-Aldrich, St. Louis, Mo.; catalog number M9685), and PCR-grade mineral oil (Sigma-Aldrich, St. Louis, Mo.; catalog no. M8662) was applied (75 μL/well). […]
# (§2) In assays for binding to biosensor coated with ssDNA primer-template, Bsu Pol I enzyme bound strongly to the primer/template-coated biosensor in the presence of correct dGTP (FIGS. 18A and 18B). […] The association phase for formation of the ternary complex was analyzed for how the association kinetic parameters may be affected by the number of nucleotides for incorporation into the homopolymer of the primer/template.
# [3] = molecular target: T1, Bsu DNA polymerase I large fragment; assay: BLI; dGTP, 1 mM Ni(II), 30 C; lower amplitude, higher kobs than ALK-G1; details: tags: New England Biolabs M0330L; label: 5' biotin on template; primed template with 5' template overhang
# Procedure: as §1, §2
# [4] = molecular target: Bst DNA polymerase, full length (Bacillus stearothermophilus, UniProt P52026 P52026:1-876); assay: BLI; correct dNTP, 300 mM KCl, 30 C; minimal binding without dNTP; details: tags: New England Biolabs M0328L; label: 5' biotin on template; primed template with 5' template overhang
# Chain of Bst DNA polymerase, full length (P52026 whole entry, one chain of several): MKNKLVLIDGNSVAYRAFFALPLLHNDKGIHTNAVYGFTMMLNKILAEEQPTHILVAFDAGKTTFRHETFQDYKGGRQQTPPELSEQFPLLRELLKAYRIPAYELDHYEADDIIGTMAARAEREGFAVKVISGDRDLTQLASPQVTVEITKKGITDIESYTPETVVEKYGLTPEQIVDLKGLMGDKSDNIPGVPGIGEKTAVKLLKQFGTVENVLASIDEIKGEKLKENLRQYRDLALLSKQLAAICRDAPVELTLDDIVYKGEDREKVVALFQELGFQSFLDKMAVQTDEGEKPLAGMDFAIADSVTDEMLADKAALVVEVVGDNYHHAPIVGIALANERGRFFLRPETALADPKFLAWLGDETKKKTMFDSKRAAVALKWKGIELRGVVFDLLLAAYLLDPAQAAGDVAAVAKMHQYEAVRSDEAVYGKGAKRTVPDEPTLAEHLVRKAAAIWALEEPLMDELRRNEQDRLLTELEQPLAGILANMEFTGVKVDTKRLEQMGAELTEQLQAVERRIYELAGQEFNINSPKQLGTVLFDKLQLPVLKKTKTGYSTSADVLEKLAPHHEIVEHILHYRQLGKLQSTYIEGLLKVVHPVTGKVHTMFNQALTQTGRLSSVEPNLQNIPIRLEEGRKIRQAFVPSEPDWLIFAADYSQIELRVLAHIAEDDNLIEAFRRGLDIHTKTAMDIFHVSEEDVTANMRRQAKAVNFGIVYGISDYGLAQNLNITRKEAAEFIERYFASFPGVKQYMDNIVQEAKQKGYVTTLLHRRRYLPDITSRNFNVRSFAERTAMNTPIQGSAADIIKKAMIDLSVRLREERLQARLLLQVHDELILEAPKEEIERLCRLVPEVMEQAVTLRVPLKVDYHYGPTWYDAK
# Procedure: Primer-template duplex was diluted (100 μM) into Annealing Buffer. Binding buffer was 50 mM Tris, pH 8.0, 300 mM KCl, 0.1% (v/v) Triton-X100, 100 μg/mL bovine serum albumin. Reaction Buffer was Binding Buffer containing 10 mM MgCl₂. Buffer containing Primer-Template (PT), Binding buffer containing one dNTP, and Reaction Buffer were loaded (200 μL/well) into a Greiner 96-well black microplate (Sigma-Aldrich, St. Louis, Mo.; catalog number M9685), and PCR-grade mineral oil (Sigma-Aldrich, St. Louis, Mo.; catalog no. M8662) was applied (75 μL/well). Streptavidin (SA) Biosensors (Pall ForteBio Corp., Menlo Park, Calif.; catalog number 18-5019) were re-hydrated in Annealing Buffer for approximately 10 minutes before use. The Octet QK biosensor system (Pall ForteBio Corp., Menlo Park, Calif.) was set for 30° C. operation and was programmed to coat the biosensors with Primer-Template and wash away unbound Primer-Template with Binding Buffer. Biosensors were transferred to Binding Buffer containing 136 Unit/mL Bst DNA Polymerase and 200 μM dNTP (dATP, dTTP, dGTP or dCTP) as indicated (association phase) followed by Reaction Buffer for dNTP incorporation. Biosensors were transferred to Reaction Buffer containing Bst DNA Polymerase (136 Unit/mL) without dNTP to promote nick translation via 5′-3′ exonuclease activity. […]
# T1 sequence (O34996 297-880, one chain of several): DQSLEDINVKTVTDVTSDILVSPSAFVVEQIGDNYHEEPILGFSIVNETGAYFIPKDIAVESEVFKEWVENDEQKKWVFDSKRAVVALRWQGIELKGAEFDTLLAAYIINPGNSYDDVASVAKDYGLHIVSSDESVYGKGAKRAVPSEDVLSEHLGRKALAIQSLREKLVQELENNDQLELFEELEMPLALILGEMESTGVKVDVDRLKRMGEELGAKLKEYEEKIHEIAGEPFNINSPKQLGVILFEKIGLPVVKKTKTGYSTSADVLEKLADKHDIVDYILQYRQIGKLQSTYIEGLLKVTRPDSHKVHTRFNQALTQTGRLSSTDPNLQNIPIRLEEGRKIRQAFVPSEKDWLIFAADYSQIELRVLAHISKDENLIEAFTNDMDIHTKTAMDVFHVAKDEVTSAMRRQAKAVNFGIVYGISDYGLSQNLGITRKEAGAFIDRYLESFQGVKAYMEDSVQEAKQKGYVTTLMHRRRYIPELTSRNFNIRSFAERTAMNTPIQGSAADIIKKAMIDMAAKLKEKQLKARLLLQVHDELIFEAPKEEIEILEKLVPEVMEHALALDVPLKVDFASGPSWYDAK
binder,measurement,setting,value
"ALK C4493A/4496-4509AS primer-template (dsDNA, 3' inverted dT on template) DNA 1: GTGAGCCTGCAATCCCTGCCCCGGTTCATCCTGATGGAGCTCATGGCGGG DNA 2: CCCGCCATGAGCTC",binding result,[1],binds
"ALK-G1 primer-template (dsDNA, 3' inverted dT on template) DNA 1: GTGAGCCTGCAATCCCTGCCCCGGTTCATCCTGCTGGAGCTCATGGCGGG DNA 2: CCCGCCATGAGCTCCA",binding result,[2],binds
"ALK-G4 primer-template (dsDNA, 3' inverted dT on template) DNA 1: GTGAGCCTGCAATCCCTGCCCCGGTTCATCCTGCTGGAGCTCATGGCGGG DNA 2: CCCGCCATGAGCTCCAGCAGGATGAACC",binding result,[3],binds
"ALK wild-type 4460-4509S/4496-4509AS primer-template (dsDNA, 3' inverted dT on template) DNA 1: GTGAGCCTGCAATCCCTGCCCCGGTTCATCCTGCTGGAGCTCATGGCGGG DNA 2: CCCGCCATGAGCTC",binding result,[4],binds
"ALK-G2 primer-template (dsDNA, 3' inverted dT on template) DNA 1: GTGAGCCTGCAATCCCTGCCCCGGTTCATCCTGCTGGAGCTCATGGCGGG DNA 2: CCCGCCATGAGCTCCAGCA",binding result,[3],binds
